In patent US20070026008A1:

Target: mouse B6 class I antigens (mouse)
Test: Binding of 9-mer peptides within p117-139 to mouse B6 (H-2^b) class I; RMA-S cell MHC stabilisation, flow cytometry

Row | Binding Affinity to Mouse MHC Class I [%] | Binder
1 | 2 | PSQASSGQA [WT1 peptide P117-125 (…)]
2 | 2 | SQASSGQAR [WT1 peptide P118-126 (…)]
3 | 2 | QASSGQARM [WT1 peptide P119-127 (…)]
4 | 1 | ASSGQARMF [WT1 peptide P120-128 (…)]
5 | 1 | SSGQARMFP [WT1 peptide P121-129 (…)]
6 | 1 | QARMFPNAP [WT1 peptide P124-132 (…)]
7 | 1 | ARMFPNAPY [WT1 peptide P125-133 (…)]
8 | 2 | MFPNAPYLP [WT1 peptide P127-135 (…)]
9 | 1 | FPNAPYLPS [WT1 peptide P128-136 (…)]
10 | 1 | PNAPYLPSC [WT1 peptide P129-137 (…)]
11 | 79 | NAPYLPSCL [WT1 peptide P130-138 (…)]
12 | 1 | APYLPSCLE [WT1 peptide P131-139 (…)]

Target: mouse B6 class I antigens (mouse)
Test: RMA-S cell MHC stabilisation, peptide 25 ug/ml, flow cytometry with FITC anti-D^b or anti-K^b; % increase of MFI over medium alone

Row | Binding Affinity to Mouse MHC Class I [%] | Binder
13 | 33.6 | CMTWNQMNL [WT1 peptide p235-243 (…)]
14 | 52 | SCLESQPAI [WT1 peptide human p136-144 (…)]
15 | 2.2 | ALLPAVPSL [WT1 peptide human p10-18 (…)]
16 | 5.8 | NLYQMTSQL [WT1 peptide p225-233 (…)]
17 | 1.2 | GCNKRYFKL [WT1 peptide p329-337 (…)]
18 | 0.8 | YSSDNLYQM [WT1 peptide p221-229 (…)]
19 | 1.2 | QMTSQLECM [WT1 peptide p228-236 (…)]
20 | 1 | NQMNLGATL [WT1 peptide p239-247 (…)]
